Molecular target: T1, GST-IE(1-1487) (immediate-early protein IEP, full length) (Equine herpesvirus 1, UniProt P17473 1-1487)
T1 sequence: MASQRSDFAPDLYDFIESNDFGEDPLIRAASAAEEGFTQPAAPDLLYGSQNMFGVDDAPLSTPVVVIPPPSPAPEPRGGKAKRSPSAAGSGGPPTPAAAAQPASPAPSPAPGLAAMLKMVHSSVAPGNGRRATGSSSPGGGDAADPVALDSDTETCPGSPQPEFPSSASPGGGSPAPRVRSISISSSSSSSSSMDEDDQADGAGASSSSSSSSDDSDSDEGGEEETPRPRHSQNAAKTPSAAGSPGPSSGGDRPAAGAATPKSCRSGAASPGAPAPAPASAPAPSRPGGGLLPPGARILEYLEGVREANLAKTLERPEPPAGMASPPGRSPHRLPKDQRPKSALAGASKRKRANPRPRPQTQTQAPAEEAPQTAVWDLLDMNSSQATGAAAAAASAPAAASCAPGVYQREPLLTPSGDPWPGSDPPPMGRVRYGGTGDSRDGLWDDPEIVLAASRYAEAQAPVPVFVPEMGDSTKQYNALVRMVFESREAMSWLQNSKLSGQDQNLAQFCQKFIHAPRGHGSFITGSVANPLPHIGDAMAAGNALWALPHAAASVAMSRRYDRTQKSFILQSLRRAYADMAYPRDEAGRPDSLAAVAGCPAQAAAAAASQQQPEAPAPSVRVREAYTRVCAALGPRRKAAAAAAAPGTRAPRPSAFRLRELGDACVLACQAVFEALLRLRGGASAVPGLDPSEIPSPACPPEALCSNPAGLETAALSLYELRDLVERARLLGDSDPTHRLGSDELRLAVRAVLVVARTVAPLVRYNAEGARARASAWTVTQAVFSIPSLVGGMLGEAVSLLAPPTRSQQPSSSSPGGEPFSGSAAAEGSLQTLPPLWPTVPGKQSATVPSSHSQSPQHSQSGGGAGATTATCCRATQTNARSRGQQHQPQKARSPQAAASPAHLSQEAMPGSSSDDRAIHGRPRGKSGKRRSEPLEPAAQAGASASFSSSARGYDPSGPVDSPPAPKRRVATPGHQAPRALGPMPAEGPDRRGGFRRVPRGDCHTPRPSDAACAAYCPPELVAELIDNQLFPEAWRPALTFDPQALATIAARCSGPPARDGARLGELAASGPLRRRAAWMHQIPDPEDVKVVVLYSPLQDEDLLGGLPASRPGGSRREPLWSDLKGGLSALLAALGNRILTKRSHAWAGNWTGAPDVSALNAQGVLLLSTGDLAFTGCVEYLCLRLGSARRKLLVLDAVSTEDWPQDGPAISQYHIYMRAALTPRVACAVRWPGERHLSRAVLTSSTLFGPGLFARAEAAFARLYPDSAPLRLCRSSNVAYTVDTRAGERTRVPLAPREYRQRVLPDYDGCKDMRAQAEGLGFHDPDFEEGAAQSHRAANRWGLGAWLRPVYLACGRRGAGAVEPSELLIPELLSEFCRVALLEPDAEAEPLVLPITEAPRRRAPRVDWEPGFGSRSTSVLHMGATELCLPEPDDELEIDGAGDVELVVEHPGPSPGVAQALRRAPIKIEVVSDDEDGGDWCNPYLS
Experiment: EMSA

B1: wtIEBS probe (IE promoter -16 to +22) (dsDNA)
DNA 1: TTGCTTACCCATCGTAGCATCGCGGACTAGAGAGCCTT
DNA 2: TTAAGGCTCTCTAGTCCGCGATGCTACGATGGGTAAGC
- binding result: binds
